Data on four substances can be found in publication PMC6156512.

Experiment [1] has as its target HPV 58 L1 aa 10–498 (human papillomavirus type 58). Kind of experiment: cryo-EM structure; purified VLPs at ~3 mg/mL vitrified on Quantifoil holey carbon grids; FEI TF30 at 300 kV; T = 7 particle images boxed manually; pentamers to VLP.
For experiment [2] the target is unchanged. Put plainly: not stated; purified L1 under reducing conditions (Fig. S4); about ~8 nm in diameter; monomers to pentamer.
In experiment [3] the target is HPV 33 L1 aa 10–499 (human papillomavirus type 33) (UniProt P06416). Kind of experiment: cryo-EM structure; purified VLPs at ~3 mg/mL vitrified on Quantifoil holey carbon grids; FEI TF30 at 300 kV; T = 7 particle images boxed manually; pentamers to VLP.
Experiment [4] shares this target. Put plainly: not stated; purified L1 under reducing conditions (Fig. S4); about ~8 nm in diameter; monomers to pentamer.
Experiment [5] concerns the target HPV 45 L1 aa 1–513 (human papillomavirus type 45). Put plainly: cryo-EM structure; purified VLPs at ~3 mg/mL vitrified on Quantifoil holey carbon grids; FEI TF30 at 300 kV; T = 7 particle images boxed manually; pentamers to VLP.
Experiment [6] shares this target. Kind of experiment: not stated; purified L1 under reducing conditions (Fig. S4); about ~8 nm in diameter; monomers to pentamer.
Experiment [7] deals with HPV 52 L1 aa 15–503 (human papillomavirus type 52). Put plainly: cryo-EM structure; purified VLPs at ~3 mg/mL vitrified on Quantifoil holey carbon grids; FEI TF30 at 300 kV; T = 7 particle images boxed manually; pentamers to VLP.
For experiment [8] the target is unchanged. Kind of experiment: not stated; purified L1 under reducing conditions (Fig. S4); about ~8 nm in diameter; monomers to pentamer.

Substance “HPV 58 L1 aa 10–498 (domain or fragment)” had a stoichiometry N (pentamers per particle) in experiment [1] of 72. This substance yielded a stoichiometry N in experiment [2] of 5.

In experiment [3], “HPV 33 L1 aa 10–499 (from UniProt P06416 10-499) (domain or fragment)” yielded a stoichiometry N (pentamers per particle) of 72. Also, the stoichiometry N in experiment [4] amounted to 5.

As for HPV 45 L1 aa 1–513 (natural protein), the stoichiometry N (pentamers per particle) in experiment [5] is 72. The substance further gave a stoichiometry N in experiment [6] of 5.

Substance “HPV 52 L1 aa 15–503 (domain or fragment)” displayed a stoichiometry N (pentamers per particle) in experiment [7] of 72. This substance showed a stoichiometry N in experiment [8] of 5.

In general, stoichiometry N refers to the number of molecules, sites or subunits per partner or assembly.
